In paper PMC4067180:

Tests used:
[1] = biological target: tektin A (S. purpuratus (endogenous in sperm flagella)); assay: co-sedimentation; Ribbons extracted with 0.5% Sarkosyl and urea (1-3 M; 1.75 M for the stoichiometry) in 10TEAD; the insoluble tektin filaments analysed by SDS-PAGE densitometry (Serva Blue) and immunoblotting
[2] = biological target: tektin B (S. purpuratus (endogenous in sperm flagella)); assay: as above

stoichiometry N [1] | stoichiometry N [2] | Substance
1 | – | tektin B (natural protein)
1 | 1 | tektin C (natural protein)
